Experimental data: paper PMC10629583, “Specific inhibition of an anticancer target, polo-like kinase 1, by allosterically dismantling its mechanism of substrate recognition” (Proceedings of the National Academy of Sciences of the …, 2023)
[ ]: non-standard residue; d: D form. The star is where a group is joined. FITC = O=C1OC2(c3ccc(O)cc3Oc3cc(O)ccc32)c2ccc(NC(=S)*)cc21; pT = C[C@@H](OP(=O)(O)O)[C@H](N)C(=O)O; Ahx = NCCCCCC(=O)O

Experiments:
Settings in all cases: both partners purified
[1] = target: T1, Plk1 polo-box domain, PBD1 (residues 345–603) WT (human, UniProt P53350 345-603); test: fluorescence polarisation; direct binding: FITC-Ahx-DPPLHSpTAI-NH2 with different concentrations of recombinant PBD1 WT or mutants
T1 construct: Polo-like kinase 1 (Plk1), polo-box domain, residues 345-603; TEV-PBD1 fragment in pET-Duet-1; A TEV site precedes PBD1 in the insert; also called PBD1 WT; Plk1 PBD; source: E. coli (purified as described for the crystallography construct, Rosetta strain)
T1 sequence (P53350 345-603): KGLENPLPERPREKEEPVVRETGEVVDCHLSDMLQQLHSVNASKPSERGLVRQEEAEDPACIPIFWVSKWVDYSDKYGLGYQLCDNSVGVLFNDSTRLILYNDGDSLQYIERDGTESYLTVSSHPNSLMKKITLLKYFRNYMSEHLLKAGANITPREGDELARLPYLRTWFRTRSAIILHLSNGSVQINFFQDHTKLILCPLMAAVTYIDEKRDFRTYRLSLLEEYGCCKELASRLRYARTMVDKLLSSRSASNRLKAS

[2] = target: T2, PBD1 (residues 345–603) F559E (human, UniProt P53350 345-603, F559E); test: fluorescence polarisation; inhibition assay: FITC-conjugated ligand (15 nM) mixed with PBD at its EC85 concentration, competitor varied; read about 30 min after reaction, 384-well format
T2 construct: Polo-like kinase 1 (Plk1), polo-box domain, residues 345-603, F559E; also called F559E mutant; source: E. coli (purified as described for the crystallography construct, Rosetta strain)
T2 sequence (P53350 345-603 F559E): as the sequence (P53350 345-603) above, with F215E counted along it

[3] = target: T3, PBD1 (residues 345–603) F559R (human, UniProt P53350 345-603, F559R); test: as above
T3 construct: Polo-like kinase 1 (Plk1), polo-box domain, residues 345-603, F559R; also called F559R mutant; source: E. coli (purified as described for the crystallography construct, Rosetta strain)
T3 sequence (P53350 345-603 F559R): as the sequence (P53350 345-603) above, with F215R counted along it

[4] = target: T4, PBD1 (residues 345–603) F559K (human, UniProt P53350 345-603, F559K); test: as above
T4 construct: Polo-like kinase 1 (Plk1), polo-box domain, residues 345-603, F559K; also called F559K mutant; source: E. coli (purified as described for the crystallography construct, Rosetta strain)
T4 sequence (P53350 345-603 F559K): as the sequence (P53350 345-603) above, with F215K counted along it

[5] = target: T5, PBD1 (residues 345–603) F559D (human, UniProt P53350 345-603, F559D); test: as above
T5 construct: Polo-like kinase 1 (Plk1), polo-box domain, residues 345-603, F559D; also called F559D mutant protein; source: E. coli (purified as described for the crystallography construct, Rosetta strain)
T5 sequence (P53350 345-603 F559D): as the sequence (P53350 345-603) above, with F215D counted along it

Measured: binding result

B1: FITC-Ahx-DPPLHSpTAI-NH2 (peptide)
peptide: {FITC-Ahx}-DPPLHS[pT]AI-NH2
SMILES: CC[C@H](C)[C@H](NC(=O)[C@H](C)NC(=O)[C@@H](NC(=O)[C@H](CO)NC(=O)[C@H](Cc1c[nH]cn1)NC(=O)[C@H](CC(C)C)NC(=O)[C@@H]1CCCN1C(=O)[C@@H]1CCCN1C(=O)[C@H](CC(=O)O)NC(=O)CCCCCNC(=S)Nc1ccc2c(c1)C(=O)OC21c2ccc(O)cc2Oc2cc(O)ccc21)[C@@H](C)OP(=O)(O)O)C(N)=O
notes: also called FITC-conjugated phosphopeptide; FITC-conjugated ligand
binds: [1] | [2] | [3] | [4] | [5]
